Experimental data from US20190201479A1.

Target: IdsE of strain BB2000 with amino acids 147-169 (variable region) replaced by the equivalent sequence of IdsE from strain HI4320 (Proteus mirabilis strain BB2000; Proteus mirabilis strain HI4320)
Test: cell-based or functional assay

Substance: IdsD from Proteus mirabilis strain BB2000 (variable region from BB2000)
- fold reduction in colony expansion of the 1:1 coswarm (donor CCS06 with CCS05-derived recipient producing DVR-BB and EVR-HI) against the monoculture swarm of the recipient: 3.12 fold
- fold reduction in colony expansion of the 1:1 coswarm (donor CCS06 with CCS05-derived recipient producing DVR-HI and EVR-HI) against the monoculture swarm of the recipient: 3.35 fold
